Measurements: PMC3567247 (Biochemistry, 2012)
Where two headings read alike, the source gives them in different places.

Tests used:
Test in all cases: SPR
[1] = biological target: T1, Lymphotoxin-α (UniProt P01374 35-205)
T1 sequence (looked up): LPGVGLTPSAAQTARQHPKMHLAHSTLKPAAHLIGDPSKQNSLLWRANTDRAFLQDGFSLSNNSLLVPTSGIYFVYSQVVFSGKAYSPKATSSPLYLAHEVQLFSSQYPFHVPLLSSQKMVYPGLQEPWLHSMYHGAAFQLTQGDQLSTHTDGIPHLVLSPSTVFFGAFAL

[2] = biological target: T1, Lymphotoxin-α; remark: listed apart in the source
[3] = biological target: T1, Lymphotoxin-α; remark: listed apart in the source

B1: Soluble TNFR1 extracellular domain, residues 40-201 (receptor, human, UniProt P19438 40-201, looked up)
chain: RDSVCPQGKYIHPQNNSICCTKCHKGTYLYNDCPGPGQDTDCRECESGSFTASENHLRHCLSCSKCRKEMGQVEISSCTVDRDTVCGCRKNQYRHYWSENLFQCFNCSLCLNGTVHLSCQEKQNTVCTCHAGFFLRENECVSCSNCKKSLECTKLCLPQIEN
Kd [1]: 46 nM | koff [1]: 0.0092 s⁻¹ | kon [1]: 170000 M⁻¹ s⁻¹ | Kd [2]: 57 nM | Kd [3]: 50 ± 10 nM
